In the supplement of paper PMC10724198:
± gives the standard deviation of the averaged measurements.

System: Saccharomyces cerevisiae
Experiment: protein stability index of tFT-peptide fusion (C-terminal peptide) (PSI (0-1 scale)); higher = more stable (slower turnover)
Conditions: genetic background: wild type; temperature: 30 C
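Note: PSI is a weighted mean of sequencing reads over stability bins, variants kept only with over 10 reads, mCherry proximal and sfGFP distal, peptide attached via GGGS linker.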

Sequence	protein stability index
PPGLPPGPARPP	0.635 ± 0.036
QVWLLRPAPARV	0.598 ± 0.12
MPENGSTKSWWK	0.696 ± 0.082
EECGVIDIILGG	0.679 ± 0.013
SKPEEAGADLSD	0.6 ± 0.086
RPNQNAFACMSP	0.702 ± 0.026
TISVNLYLPDLL	0.677 ± 0.057
WFSCYSGQSSNF	0.757 ± 0.11
DGVRGWVGVAGD	0.698 ± 0.039
SFPPPPFPPLFL	0.722 ± 0.023
GASGGNRTGRRS	0.681 ± 0.022
LPPSSLTLSPSS	0.675 ± 0.045
PPSLPHLCRLHL	0.668 ± 0.057
QRVIELVLISNM	0.539 ± 0.043
NLCRLGHTAGVL	0.753 ± 0.086
GCMRCTYKGKVK	0.713 ± 0.059
GFGFMGLRFGVD	0.762 ± 0.13
EITRNKRRCARR	0.674 ± 0.14
VCLVHSPFDTLP	0.699 ± 0.037
LPSLHPPPSPQP	0.777 ± 0.08
KRIRTKLKKTQK	0.695 ± 0.011
PFECRRPFPPPA	0.764 ± 0.067
WGGQRGWVEVWR	0.683 ± 0.04
PPPLPPPLPLCS	0.675 ± 0.023
SFPPLRPSPPLL	0.667 ± 0.019

Sequence	protein stability index
GLCAVWSGAGRC	0.7 ± 0.037
TTPPFVSALPLS	0.71142 ± 0.00043
GGGVWGVGRGIL	0.6 ± 0.013
PPFFPLRPSLVL	0.656 ± 0.051
KINQDKKKGKKK	0.686 ± 0.079
LSPAAPTHAYAA	0.72 ± 0.1
FCFLSALTCLCA	0.589 ± 0.021
LLFSPTHEPRIW	0.734 ± 0.075
SYRLILGSSPHP	0.619 ± 0.089
TSPTPFVSCSLP	0.629 ± 0.044
TARGIRGICKSI	0.711 ± 0.021
PFSLLPDASPPL	0.703 ± 0.04
PGLSTGAVKLLY	0.692 ± 0.023
PSPAPFPSSPSL	0.687 ± 0.0073
AVFLGGLLVSRW	0.682 ± 0.24
GFETGLGKGAGW	0.714 ± 0.019
PGSRRAQPVTSG	0.741 ± 0.022
GVGAALDVWRRR	0.696 ± 0.033
STGAVGVSVCEG	0.64 ± 0.022
ARPAPHRSRRPS	0.68 ± 0.013
AGAGEHCDGVVG	0.641 ± 0.0096
SQMGRGRQRGDR	0.741 ± 0.024
RTECRCCVGEVG	0.656 ± 0.069
PQWVSIGSACCQ	0.754 ± 0.076
PYWVPSKSSLSP	0.742 ± 0.068

Sequence	protein stability index
PSRGPGRVAPCD	0.641 ± 0.013
REKDMIKSGIKS	0.724 ± 0.02
PCYSFSSSPPRL	0.693 ± 0.016
HPTLPPHPPPHP	0.768 ± 0.036
TLCFRLGFLSYF	0.604 ± 0.091
GSCGCLSVVSGR	0.713 ± 0.044
KSDKVYKQKPNT	0.705 ± 0.11
PLPPPPAPPLSP	0.67 ± 0.018
HVLFPLHPNRIP	0.6609 ± 0.0016
EGVKSGDGGAGG	0.63832 ± 0.00019
SVAPRPPFPFAI	0.694 ± 0.026
LESLPSPLHLPM	0.629 ± 0.026
RPPPLLSPPSPP	0.718 ± 0.026
LPPPPLPPPVFP	0.74 ± 0.018
RSVPPSSPPPYF	0.699 ± 0.037
LQATFRRHLNLV	0.655 ± 0.032
QQKKPIRKELRN	0.702 ± 0.053
GAVCRRVWVGSW	0.674 ± 0.0089
PPPYHLTPPPPF	0.662 ± 0.052
PPLPPPLLPFSI	0.747 ± 0.019
RFSPARPASPPP	0.687 ± 0.036
LRSPPSLLPLSL	0.7056 ± 0.0033
IKKKKKKKQRKQ	0.65 ± 0.069
YLPYRTCSWKYE	0.56 ± 0.022
FPVSLSSVRMFV	0.6254 ± 0.0032

Sequence	protein stability index
RMGQQISSVRLF	0.679 ± 0.0082
AQERDGAIKKTH	0.7 ± 0.033
REGKGREQGRKK	0.616 ± 0.053
LLPPPPFSAPPS	0.671 ± 0.012
APEGGEAQVLPA	0.6842 ± 0.0022
KKVKKKRSKKNT	0.66 ± 0.17
LAAVAAGDVGGG	0.674 ± 0.035
RDSLGGRSMHGW	0.682 ± 0.029
CGLSYSISVNMR	0.627 ± 0.02
RWHLCERFGGRV	0.643 ± 0.1
ISWCPRHPFSSD	0.752 ± 0.014
LIDYGLDVSLSL	0.703 ± 0.015
PMLRSLVVLSSR	0.669 ± 0.022
RVPVSQHARTRN	0.6744 ± 0.0055
LATGCVGVRGHE	0.719 ± 0.023
SLLPLSLLSSPF	0.664 ± 0.0072
GKRYEKVGVEWW	0.765 ± 0.12
LKAACAKRGVLS	0.679 ± 0.085
GGVGGCARVWPR	0.654 ± 0.061
LYSPSLRPPLLL	0.855 ± 0.18
KVRGMKIKGKLD	0.675 ± 0.054
GREGQGRGGQQG	0.629 ± 0.05
RAHLVSAPPQNF	0.7074 ± 0.0033
RSFGRVVSCSGC	0.6993 ± 0.0056
RSPSFLRSFPAL	0.686 ± 0.016

Sequence	protein stability index
ALLSRFFPAFFF	0.604 ± 0.021
GPVLAVTRIVCK	0.552 ± 0.0096
SPYLGSALPPDR	0.628 ± 0.07
GRERGTEKGESG	0.631 ± 0.11
LLPVFFISYPSS	0.6545 ± 0.0053
AWGARWVCVMGG	0.626 ± 0.027
VMGAGGGSRSRV	0.677 ± 0.037
VTDSRAIMARRV	0.645 ± 0.083
PLPLLPLPPLAP	0.67 ± 0.098
CSGLFLAPSYTQ	0.713 ± 0.0096
WKNTNSLRAPAL	0.675 ± 0.016
GTVHQQGGPIDG	0.676 ± 0.033
PPRRPPLAPPPP	0.693 ± 0.019
GGLACTLAAFYL	0.733 ± 0.047
FAFLPYKGISSS	0.682 ± 0.05
LDINWVGGAPEV	0.727 ± 0.042
TDGLGGGVVGRE	0.664 ± 0.011
RPRLQNLSRSNV	0.74 ± 0.074
LLTSRLSTPFLI	0.53 ± 0.012
HSRPAAPCRSPL	0.679 ± 0.013
SPFLTPSSHPPS	0.681 ± 0.03
SSLRSFPLLEHT	0.6857 ± 0.0012
SDLGLHGRVPST	0.6671 ± 0.0014
TTLSMYFCMCVL	0.638 ± 0.14
PPNPFPALRSSP	0.7324 ± 0.0011

Sequence	protein stability index
IRNDERHSKNQD	0.74 ± 0.062
SIGAGSSGVGQE	0.685 ± 0.037
FRLQSLFPYVVK	0.604 ± 0.047
LCPALLFLLARS	0.5141 ± 0.0033
DVRVFQMLQGDI	0.709 ± 0.012
LPERASQARGRP	0.694 ± 0.17
PHRPIGRVKHAS	0.71 ± 0.038
GGCGNVGVGVSV	0.694 ± 0.012
NIPESSVSKLSK	0.678 ± 0.026
HIAKQSSRRRRR	0.68 ± 0.029
GGGGGLVVFGWK	0.687 ± 0.007
SRRLAFSTVLPA	0.664 ± 0.035
LFPCFSFPFSFL	0.587 ± 0.055
FSGLFAFGRVVV	0.687 ± 0.056
SPLPLASPFGFP	0.719 ± 0.033
FPGGGARAGVGV	0.724 ± 0.025
YSAPFRIPLSLR	0.631 ± 0.034
PISPSLCSSILS	0.5893 ± 0.0056
ETGGQTELKVVH	0.683 ± 0.084
SVKESKIQQNRE	0.705 ± 0.11
GGAMLMLAVEGV	0.609 ± 0.044
